# Results reported in PMC8953729.
# What was measured:
# [1] = target: Tyr11 (position 11, …--); experiment: potentiometry; conditions: metal-free peptide
# [2] = target: Nterm1 (position 1, -----MDHSHH); experiment: potentiometry
protein,measurement,setting,value
MDHSHHMGMSYMDS,pKa,"[1]; 298.0 ± 0.2 K, 0.10 M (KNO3), none (titration with 0.1 M KOH under argon)",9.64
same,pKa,[1]; cited from earlier work,9.84
same,pKa,"[2]; 298 K, 0.1 mol dm^-3 (KNO3), mononuclear Ag+ complex ([AgLH2] to [AgLH]), Ag+/peptide ratios 1:1, 1:2 and 2:1",7.33
same,pKa,"[2]; 298.0 ± 0.2 K, 0.10 M (KNO3), none (titration with 0.1 M KOH under argon), metal-free peptide",7.63
same,pKa,"[2]; metal-free peptide, cited from earlier work",7.46
